# Results: patent publication US20260209322A1 (HAMAD BIN KHALIFA UNIVERSITY, published 2026)
# Legend:
# Assay in all cases: filter retardation assay
# [1] = biological target: mouse α-synuclein (mouse, UniProt O55042 1-140)
# Protocol: (§1) Filter retardation assay was performed using a Minifold 48 slots (GE Healthcare Life Sciences). Each protein (50 μl) at a final concentration of 1 μg/ml was loaded into each slot on a nitrocellulose membrane that has been pre-soaked in PBS. Samples were allowed to absorb onto the nitrocellulose membrane and then slots were washed with 1 ml of PBS. Membranes were then probed with relevant antibodies, and developed with SuperSignal West Pico Chemiluminescent Substrate Kit.
# [2] = biological target: γ-synuclein (UniProt O76070 1-127)
# Protocol: as §1
# [3] = biological target: β-synuclein (UniProt Q16143 1-134)
# Sequence of β-synuclein (Q16143 whole entry): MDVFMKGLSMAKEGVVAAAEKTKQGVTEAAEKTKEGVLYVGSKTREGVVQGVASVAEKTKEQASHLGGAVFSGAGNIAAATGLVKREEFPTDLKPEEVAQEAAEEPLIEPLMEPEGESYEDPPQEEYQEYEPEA
# Protocol: as §1
# Sequence of γ-synuclein (O76070 whole entry): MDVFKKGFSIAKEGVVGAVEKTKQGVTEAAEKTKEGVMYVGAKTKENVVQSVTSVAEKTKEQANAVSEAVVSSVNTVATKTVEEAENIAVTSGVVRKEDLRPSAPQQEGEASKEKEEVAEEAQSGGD
binder,measurement,setting,value
"monoclonal antibody 4B1 produced by hybridoma 4B1 (ATCC Patent Deposit Number PTA-127017) (antibody, mouse IgG1, kappa, V domains shown, also called mAb 4B1; 4E1) VH: EVKLVESGGGLVQPGGSLKLSCAASGITFSSYTMSWVRQTPEKRLEWVGYISNGGGRTYYPDTVKGRFTISRDNAKNTLYLQMSSLKSEDTAMYYCARQITTAMGYYYAMDYWGQGTSVTVSS VL: DVVMTQTPLSLPVSLGDQASISCRSSQSLVHSNGNTYLHWYLQKPGQSPKLLISKVSNRFSGVPDRFSGSGSGTDFTLKISRVEAEDLGVYFCSQSTHVPLTFGAGTKLELKR",binding result,[1],binds
same,binding result,[2],no binding
same,binding result,[3],no binding
